Literature values as cited in article PMC3253530.
Like-named read-outs stand apart in the source and are kept apart here.

Assays:
PTPζ (Homo sapiens) [1] = target: PTPζ (Homo sapiens) (UniProt P23471)
LRP-1 (Homo sapiens) = LRP-1 (Homo sapiens) (UniProt Q07954)
PTPζ (Homo sapiens) [2] = target: PTPζ (Homo sapiens) (UniProt P23471); remark: listed apart in the source

UniProt P23471, sequence (P23471 25-1636): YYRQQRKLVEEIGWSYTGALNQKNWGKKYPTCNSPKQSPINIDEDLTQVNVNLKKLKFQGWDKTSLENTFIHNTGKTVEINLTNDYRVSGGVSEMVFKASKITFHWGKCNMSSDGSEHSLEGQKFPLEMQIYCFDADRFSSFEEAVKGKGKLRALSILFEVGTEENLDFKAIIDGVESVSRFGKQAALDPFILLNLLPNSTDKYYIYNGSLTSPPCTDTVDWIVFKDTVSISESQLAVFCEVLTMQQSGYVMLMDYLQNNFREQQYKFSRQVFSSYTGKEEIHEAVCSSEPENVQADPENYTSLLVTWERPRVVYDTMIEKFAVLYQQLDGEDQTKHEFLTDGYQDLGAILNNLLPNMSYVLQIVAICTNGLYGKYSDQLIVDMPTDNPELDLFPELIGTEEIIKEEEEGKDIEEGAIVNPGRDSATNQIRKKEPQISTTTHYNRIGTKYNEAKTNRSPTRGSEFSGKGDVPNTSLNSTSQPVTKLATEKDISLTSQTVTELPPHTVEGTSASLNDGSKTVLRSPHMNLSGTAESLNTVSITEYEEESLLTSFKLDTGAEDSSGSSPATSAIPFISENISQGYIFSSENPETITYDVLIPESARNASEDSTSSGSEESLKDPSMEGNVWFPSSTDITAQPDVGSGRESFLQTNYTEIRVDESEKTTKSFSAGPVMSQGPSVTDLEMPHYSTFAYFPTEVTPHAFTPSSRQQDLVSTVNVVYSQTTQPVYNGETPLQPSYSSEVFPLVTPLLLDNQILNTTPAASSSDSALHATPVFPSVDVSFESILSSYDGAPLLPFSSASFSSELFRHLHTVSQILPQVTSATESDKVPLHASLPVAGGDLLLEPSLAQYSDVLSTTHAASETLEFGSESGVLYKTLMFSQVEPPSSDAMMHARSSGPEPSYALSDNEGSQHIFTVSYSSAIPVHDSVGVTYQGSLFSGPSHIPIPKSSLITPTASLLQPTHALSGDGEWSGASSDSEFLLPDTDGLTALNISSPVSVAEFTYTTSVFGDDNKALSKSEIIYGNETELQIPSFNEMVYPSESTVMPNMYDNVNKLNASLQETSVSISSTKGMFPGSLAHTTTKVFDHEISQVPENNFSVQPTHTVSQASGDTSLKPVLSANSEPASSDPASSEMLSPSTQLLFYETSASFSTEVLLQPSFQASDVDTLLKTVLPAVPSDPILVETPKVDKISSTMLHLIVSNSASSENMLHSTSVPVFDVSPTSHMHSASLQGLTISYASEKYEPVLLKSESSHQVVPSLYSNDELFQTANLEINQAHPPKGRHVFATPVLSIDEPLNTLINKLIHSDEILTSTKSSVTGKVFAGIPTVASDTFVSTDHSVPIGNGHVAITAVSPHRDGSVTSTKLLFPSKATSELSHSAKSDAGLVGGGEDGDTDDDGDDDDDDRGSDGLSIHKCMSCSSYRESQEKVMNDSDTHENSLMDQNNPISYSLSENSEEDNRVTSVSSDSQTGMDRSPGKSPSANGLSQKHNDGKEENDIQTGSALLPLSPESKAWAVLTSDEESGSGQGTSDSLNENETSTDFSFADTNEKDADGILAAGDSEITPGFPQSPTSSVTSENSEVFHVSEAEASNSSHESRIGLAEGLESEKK

For Midkine (from UniProt P21741), the Kd (PTPζ (Homo sapiens) [1]) is listed as 0.56 nM, the Kd (LRP-1 (Homo sapiens)) is listed as 3.5 nM and the Kd (PTPζ (Homo sapiens) [2]) is listed as 8.8 nM.
